# Test results from the supplement of paper PMC7877785.
# ± gives the uncertainty stated by the source.
# Test: self-splicing fitness, log relative to wild type (ln ratio); higher = more splicing; Tetrahymena group I intron in knt gene, E. coli kanamycin selection, DiMSum; sequences stand for … in CUCUCU…GGAGGGAAAAGUUAUCAGGCAUGCACCUGGUAGCUAGUCUUUAAACCAAUAGAUUGCAUCGGUUUAAAAGGCAAGACCGUCAAAUUGCGGGAAAGGGGUCAACAGCCGUUCAGUACCAAGUCUCAGGGGAAACUUUGAGAUGGCCUUGCAAAGGGUAUGGUAAUAAGCUGACGGACAUGGUCCUAACCACGCAGCCAAGUCCUAAGUCAACAGAUCUUCUGUUGAUAUGGAUGCAGUUCACAGACUAAAUGUCGGUCGGGGAAGAUGUAUUCUUCUCAUAAGAUAUAGUCGGACCUCUCCUUAAUGGGAGCUAGCGGAUGAAGUGAUGCAACACUGGAGCCGCUGGGAACUAAUUUGUAUGCGAAAGUAUAUUGAUUAGUUUUGGAGUACUCGUGGUCG
# Procedure, shortened: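 The eight P1ex-region nucleotides of an intron in the knt kanamycin-resistance gene on pET-22b(+) were all randomised and the library put into E. coli BL21(DE3). Six replicate transformations were grown overnight at 37°C or 30°C on LB agar with or without 25 μg/mL kanamycin, together with 100 μg/mL carbenicillin, 50 μM IPTG and 0.2% rhamnose. Colonies were pooled and amplicon-sequenced on an Illumina HiSeq 2500. Fitness from DiMSum is the error-weighted combination of wild-type-normalised replicate fold changes, kanamycin over none.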
Sequence,self-splicing fitness (ln) (30 °C),self-splicing fitness (ln) (37 °C)
GGACAGCAAUAUUACGUAAU,-0.0161 ± 0.056,-0.0127 ± 0.07
GGACAGCAAUAUUACGUAGA,-0.242 ± 0.08,-0.126 ± 0.091
GGACAGCAAUAUUACGUCUA,-0.35 ± 0.081,-0.114 ± 0.097
GGACAGCAAUAUUACGUGCC,-3.78 ± 0.19,-2.02 ± 0.21
GGACAGCAAUAUUACGUUAU,-0.282 ± 0.046,0.102 ± 0.066
GGACAGCAAUAUUACGUUGC,-4.57 ± 0.24,-2.83 ± 0.18
GGAGAGCAAUAUUACGAAUU,-3.13 ± 0.49,-2.27 ± 0.4
GGAGAGCAAUAUUACGAGUU,-4 ± 0.35,–
GGAGAGCAAUAUUACGAUGC,-2.8 ± 0.33,-0.975 ± 0.22
GGAGAGCAAUAUUACGCAAG,–,-3.71 ± 0.46
GGAGAGCAAUAUUACGCUUG,-3.1 ± 0.16,-2.01 ± 0.21
GGAGAGCAAUAUUACGGAGG,-2.93 ± 0.48,-0.819 ± 0.23
GGAGAGCAAUAUUACGGCCA,-2.34 ± 0.36,-1.21 ± 0.35
GGAGAGCAAUAUUACGGGAA,-2.58 ± 0.33,-2.58 ± 0.38
GGAGAGCAAUAUUACGGGAU,-4.2 ± 0.36,-3.23 ± 0.35
GGAGAGCAAUAUUACGGGCG,-3.79 ± 0.29,-2.37 ± 0.26
GGAGAGCAAUAUUACGGGGC,-3.01 ± 0.27,-2.71 ± 0.44
GGAGAGCAAUAUUACGGGGG,–,-1.49 ± 0.46
GGAGAGCAAUAUUACGGUCU,–,-2.31 ± 0.48
GGAGAGCAAUAUUACGUAAC,-1.69 ± 0.11,-0.596 ± 0.15
GGAGAGCAAUAUUACGUAGU,-1.91 ± 0.19,-2.15 ± 0.3
GGAUAGCAAUAUUACGACCU,0.689 ± 0.32,0.93 ± 0.25

Sequence,self-splicing fitness (ln) (30 °C),self-splicing fitness (ln) (37 °C)
GGAUAGCAAUAUUACGCCAG,-2.63 ± 0.32,-0.526 ± 0.34
GGAUAGCAAUAUUACGCGCG,-1.25 ± 0.13,0.793 ± 0.15
GGAUAGCAAUAUUACGCUCU,-1.63 ± 0.26,–
GGAUAGCAAUAUUACGGGGU,–,-3.01 ± 0.35
GGAUAGCAAUAUUACGGGUU,-2.16 ± 0.096,-1.42 ± 0.12
GGAUAGCAAUAUUACGUAGC,-3.55 ± 0.2,-1.06 ± 0.16
GGAUAGCAAUAUUACGUCUA,-0.367 ± 0.087,-0.516 ± 0.088
GGAUAGCAAUAUUACGUGUG,-1.91 ± 0.12,-1.19 ± 0.14
GGAUAGCAAUAUUACGUUAC,-1.87 ± 0.12,-1.26 ± 0.15
GGCAAGCAAUAUUACGAAUA,-1.45 ± 0.079,-0.797 ± 0.083
GGCAAGCAAUAUUACGAGCU,-2.69 ± 0.18,-1.67 ± 0.23
GGCAAGCAAUAUUACGAGGG,-2.89 ± 0.13,-2.34 ± 0.14
GGCAAGCAAUAUUACGAUAG,-2.73 ± 0.19,-2.18 ± 0.14
GGCAAGCAAUAUUACGAUCG,-0.12 ± 0.054,-0.459 ± 0.066
GGCAAGCAAUAUUACGAUGC,-2.36 ± 0.11,-1.02 ± 0.12
GGCAAGCAAUAUUACGCAAC,-2.24 ± 0.12,-0.823 ± 0.1
GGCAAGCAAUAUUACGCAGA,-1.23 ± 0.15,-0.852 ± 0.16
GGCAAGCAAUAUUACGCCCA,-1.95 ± 0.15,-0.268 ± 0.12
GGCAAGCAAUAUUACGCUAA,-0.671 ± 0.089,0.1 ± 0.12
GGCAAGCAAUAUUACGCUCC,-2.93 ± 0.44,-1.07 ± 0.36
GGCAAGCAAUAUUACGCUUA,-0.449 ± 0.076,0.129 ± 0.1
GGCAAGCAAUAUUACGGACC,-1.77 ± 0.18,-0.606 ± 0.2
